Laboratory results from US20240317849A1.

Target: recombinant human NPR3 protein, extracellular domain amino acids Gly27-Ser482 fused to the Fc portion of mouse IgG2a at the NPR3 C-terminus (human; mouse) (UniProt P17342)
Assay: ELISA-based blocking assay on coated hNPR3-mFc, competitor biotin-hANP 200 pM; categorized as a non-blocker

Sequence of UniProt P17342 (P17342 27-482 limits assumed): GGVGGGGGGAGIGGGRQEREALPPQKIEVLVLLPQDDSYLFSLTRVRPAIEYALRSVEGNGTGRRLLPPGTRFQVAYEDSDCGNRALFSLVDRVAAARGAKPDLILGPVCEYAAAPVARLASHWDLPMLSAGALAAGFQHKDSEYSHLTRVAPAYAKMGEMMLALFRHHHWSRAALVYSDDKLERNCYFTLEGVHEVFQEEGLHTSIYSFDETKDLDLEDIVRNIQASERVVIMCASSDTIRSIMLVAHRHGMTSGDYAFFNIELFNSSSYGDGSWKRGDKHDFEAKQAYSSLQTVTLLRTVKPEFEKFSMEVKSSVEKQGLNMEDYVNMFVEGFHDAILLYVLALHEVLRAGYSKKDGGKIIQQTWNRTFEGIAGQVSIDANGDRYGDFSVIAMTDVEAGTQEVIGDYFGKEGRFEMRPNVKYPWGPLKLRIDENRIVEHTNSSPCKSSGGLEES

For “non-binding human IgG1 isotype control antibody (ELISA blocking assay)”, the percent blockade was 32%.
